This is an account of results in patent US20230416335A1.

The target of assay [1] is … (SEQ ID NO: 1)-HLA-A*02 complex (human). Description: SPR (BIAcore) or BLI (Octet) per Example 3, immobilised biotinylated pHLA, 25 C. On the technique in general: In SPR one partner is held on a chip, and binding of the other changes the refractive index at the surface.
Assay [2] shares this target. Description: cell-based or functional assay.

B1: ImmTAC molecule a79b64 (TCR-anti-CD3 fusion) (TCR, part only; not given: anti-CD3 scFv, linker, constant regions, not shown: a dimerising Fc or GST)
TCR alpha, part: GDAKTTQPNSMESNEEEPVHLPCNHSTISGTDYIHWYRQLPSQGPEYVIHGLTSNVNNRMASLAIAEDRKSSTLILHRATLRDAAVYYCILILGHSRLGNYIATFGKGTKLSVIP
TCR beta, part: DGGITQSPKYLFRKEGQNVTLSCEQNLNHDAMYWYRQDPGQGLRLIYYSQIMNDEQKGDIAEGYSVSREKKESFPLTVTSAQKNPTAFYLCASSWWTGGSAPIRFGPGTRLTVT
On to B1, for which, in assay [1], the Kd (usually a measure of binding affinity in units of concentration) came to 0.138 nM and the t1/2 turned out to be 6.38 h. This molecule also showed an EC50 (mel624), IFN-γ ELISPOT, T cell activation in assay [2] of 0.0275 nM.

B2: ImmTAC molecule a79b71 (TCR-anti-CD3 fusion) (TCR, part only; not given: anti-CD3 scFv, linker, constant regions, not shown: a dimerising Fc or GST)
TCR alpha, part: GDAKTTQPNSMESNEEEPVHLPCNHSTISGTDYIHWYRQLPSQGPEYVIHGLTSNVNNRMASLAIAEDRKSSTLILHRATLRDAAVYYCILILGHSRLGNYIATFGKGTKLSVIP
TCR beta, part: DGGITQSPKYLFRKEGQNVTLSCEQNLNHDAMYWYRQDPGQGLRLIYYSQIMGDEQKGDIAEGYSVSREKKESFPLTVTSAQKNPTAFYLCASSWWTGGSAPIYFGPGTRLTVT
In assay [1], B2 registered a Kd of 0.087 nM and a t1/2 of 14.9 h. Also, the EC50 (mel624), IFN-γ ELISPOT, T cell activation in assay [2] was 0.0318 nM.

B3: ImmTAC molecule a28b74 (TCR-anti-CD3 fusion) (TCR, part only; not given: anti-CD3 scFv, linker, constant regions, not shown: a dimerising Fc or GST)
TCR alpha, part: GDAKTTQPNSMESNEEEPVHLPCNHSTISGTDYIHWYRQLPSQGPEYVIHGLTSNVNNRMASLAIAEDRKSSTLILHRATLRDAAVYYCILILGHSRAGNYIATFGKGTKLSVIP
TCR beta, part: DGGITQSPKYLFRKEGQNVTLSCEQNLNHDAMYWYRQDPGQGLRLIYYSQIMGDEQKGDIAEGYSVSREKKESFPLTVTSAQKNPTAFYLCASSWWTGGASPIRFGPGTRLTVT
Regarding B3, in assay [1], the Kd was determined as 0.182 nM and the t1/2 stood at 3.7 h. Further, the EC50 (mel624), IFN-γ ELISPOT, T cell activation in assay [2] amounted to 0.0243 nM.

B4: ImmTAC molecule a79b75 (TCR-anti-CD3 fusion) (TCR, part only; not given: anti-CD3 scFv, linker, constant regions, not shown: a dimerising Fc or GST)
TCR alpha, part: GDAKTTQPNSMESNEEEPVHLPCNHSTISGTDYIHWYRQLPSQGPEYVIHGLTSNVNNRMASLAIAEDRKSSTLILHRATLRDAAVYYCILILGHSRLGNYIATFGKGTKLSVIP
TCR beta, part: DGGITQSPKYLFRKEGQNVTLSCEQNLNHDAMYWYRQDPGQGLRLIYYSQIMGDEQKGDIAEGYSVSREKKESFPLTVTSAQKNPTAFYLCASSWWTGGSAPISFGPGTRLTVT
Take B4: in assay [1], the Kd was 0.0577 nM and the t1/2 is 16.9 h. Besides, the EC50 (mel624), IFN-γ ELISPOT, T cell activation in assay [2] was determined as 0.0236 nM.

B5: ImmTAC molecule a79b67 (TCR-anti-CD3 fusion) (TCR, part only; not given: anti-CD3 scFv, linker, constant regions, not shown: a dimerising Fc or GST)
TCR alpha, part: GDAKTTQPNSMESNEEEPVHLPCNHSTISGTDYIHWYRQLPSQGPEYVIHGLTSNVNNRMASLAIAEDRKSSTLILHRATLRDAAVYYCILILGHSRLGNYIATFGKGTKLSVIP
TCR beta, part: DGGITQSPKYLFRKEGQNVTLSCEQNLNHDAMYWYRQDPGQGLRLIYYSQIMGDEQKGDIAEGYSVSREKKESFPLTVTSAQKNPTAFYLCASSWWTSGSAPIRFGPGTRLTVT
Regarding B5, in assay [1], the Kd was 0.047 nM and the t1/2 turned out to be 12.7 h. For the same molecule, the EC50 (mel624), IFN-γ ELISPOT, T cell activation in assay [2] was found to be 0.0263 nM.

B6: ImmTAC molecule a28b58 (TCR-anti-CD3 fusion) (TCR, part only; not given: anti-CD3 scFv, linker, constant regions, not shown: a dimerising Fc or GST)
TCR alpha, part: GDAKTTQPNSMESNEEEPVHLPCNHSTISGTDYIHWYRQLPSQGPEYVIHGLTSNVNNRMASLAIAEDRKSSTLILHRATLRDAAVYYCILILGHSRAGNYIATFGKGTKLSVIP
TCR beta, part: DGGITQSPKYLFRKEGQNVTLSCEQNLNHDAMYWYRQDPGQGLRLIYYSQIMGDEQKGDIAEGYSVSREKKESFPLTVTSAQKNPTAFYLCASSWWTGGSSPISFGPGTRLTVT
In assay [1], B6 gave a Kd of 0.079 nM and a t1/2 of 8.9 h. In addition, the EC50 (mel624), IFN-γ ELISPOT, T cell activation in assay [2] came to 0.012 nM.

B7: ImmTAC molecule a79b74 (TCR-anti-CD3 fusion) (TCR, part only; not given: anti-CD3 scFv, linker, constant regions, part only)
TCR alpha, part: GDAKTTQPNSMESNEEEPVHLPCNHSTISGTDYIHWYRQLPSQGPEYVIHGLTSNVNNRMASLAIAEDRKSSTLILHRATLRDAAVYYCILILGHSRLGNYIATFGKGTKLSVIP
TCR beta, part: DGGITQSPKYLFRKEGQNVTLSCEQNLNHDAMYWYRQDPGQGLRLIYYSQIMGDEQKGDIAEGYSVSREKKESFPLTVTSAQKNPTAFYLCASSWWTGGASPIRFGPGTRLTVT
As to B7, in assay [1], the Kd turned out to be 0.0533 nM and the t1/2 turned out to be 12.5 h. The same molecule displayed an EC50 (mel624), IFN-γ ELISPOT, T cell activation in assay [2] of 0.00955 nM.

B8: ImmTAC molecule a79b58 (TCR-anti-CD3 fusion) (TCR, part only; not given: anti-CD3 scFv, linker, constant regions, not shown: a dimerising Fc or GST)
TCR alpha, part: GDAKTTQPNSMESNEEEPVHLPCNHSTISGTDYIHWYRQLPSQGPEYVIHGLTSNVNNRMASLAIAEDRKSSTLILHRATLRDAAVYYCILILGHSRLGNYIATFGKGTKLSVIP
TCR beta, part: DGGITQSPKYLFRKEGQNVTLSCEQNLNHDAMYWYRQDPGQGLRLIYYSQIMGDEQKGDIAEGYSVSREKKESFPLTVTSAQKNPTAFYLCASSWWTGGSSPISFGPGTRLTVT
Regarding B8, in assay [1], the Kd was 0.0231 nM and the t1/2 was determined as 28.7 h. For the same molecule, the EC50 (mel624), IFN-γ ELISPOT, T cell activation in assay [2] is 0.0106 nM.

B9: ImmTAC molecule a28b75 (TCR-anti-CD3 fusion) (TCR, part only; not given: TCR constant regions and anti-CD3 scFv, not shown: a dimerising Fc or GST)
TCR alpha, part: GDAKTTQPNSMESNEEEPVHLPCNHSTISGTDYIHWYRQLPSQGPEYVIHGLTSNVNNRMASLAIAEDRKSSTLILHRATLRDAAVYYCILILGHSRAGNYIATFGKGTKLSVIP
TCR beta, part: DGGITQSPKYLFRKEGQNVTLSCEQNLNHDAMYWYRQDPGQGLRLIYYSQIMGDEQKGDIAEGYSVSREKKESFPLTVTSAQKNPTAFYLCASSWWTGGSAPISFGPGTRLTVT
In assay [1], B9 registered a Kd of 0.214 nM and a t1/2 of 5.1 h. This molecule also returned an EC50 (mel624), IFN-γ ELISPOT, T cell activation in assay [2] of 0.0139 nM.
